T1: FcγRIIa R (human, UniProt P12318 34-217)
T1 construct: extracellular domain; Soluble extracellular domain with C-terminal His tag, expressed in FreeStyle293 cells; also called FcgRIIa R; FcγRIIa type R; not shown: His tag attached to the C terminus
T1 sequence (looked up): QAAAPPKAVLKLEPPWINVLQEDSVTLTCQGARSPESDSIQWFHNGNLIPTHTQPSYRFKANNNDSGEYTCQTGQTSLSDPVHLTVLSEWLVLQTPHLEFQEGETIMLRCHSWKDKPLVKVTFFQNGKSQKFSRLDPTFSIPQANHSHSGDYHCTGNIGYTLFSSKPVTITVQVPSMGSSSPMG

B1: GpH7-A5/GpH7-B3 variant L328_03V/GpL16-k0 (antibody, human IgG1, kappa)
heavy 1: not shown
heavy 2: not shown
light: DIVMTQSPLSLPVTPGEPASISCQASESLVHSNRNTYLHWYLQKPGQSPQLLIYKVSNRFSGVPDRFSGSGSGTDFTLKISRVEAEDVGVYYCSQNTHVPPTFGQGTKVEIERTVAAPSVFIFPPSDEQLKSGTASVVCLLNNFYPREAKVQWKVDNALQSGNSQESVTEQDSKDSTYSLSSTLTLSKADYEKHKVYACEVTHQGLSSPVTKSFNRGEC
notes: heterodimerized; mutation in one H chain only; also called He Ab
B2: GpH7-A5/GpH7-B3 variant L328_04F/GpL16-k0 (antibody, human IgG1, kappa)
heavy 1: not shown
heavy 2: not shown
light: DIVMTQSPLSLPVTPGEPASISCQASESLVHSNRNTYLHWYLQKPGQSPQLLIYKVSNRFSGVPDRFSGSGSGTDFTLKISRVEAEDVGVYYCSQNTHVPPTFGQGTKVEIERTVAAPSVFIFPPSDEQLKSGTASVVCLLNNFYPREAKVQWKVDNALQSGNSQESVTEQDSKDSTYSLSSTLTLSKADYEKHKVYACEVTHQGLSSPVTKSFNRGEC
notes: as for B1
B3: GpH7-A5/GpH7-B3 variant L328_06M/GpL16-k0 (antibody, human IgG1, kappa)
heavy 1: not shown
heavy 2: not shown
light: DIVMTQSPLSLPVTPGEPASISCQASESLVHSNRNTYLHWYLQKPGQSPQLLIYKVSNRFSGVPDRFSGSGSGTDFTLKISRVEAEDVGVYYCSQNTHVPPTFGQGTKVEIERTVAAPSVFIFPPSDEQLKSGTASVVCLLNNFYPREAKVQWKVDNALQSGNSQESVTEQDSKDSTYSLSSTLTLSKADYEKHKVYACEVTHQGLSSPVTKSFNRGEC
notes: as for B1
B4: GpH7-A5/GpH7-B3 variant L328_07I/GpL16-k0 (antibody, human IgG1, kappa)
heavy 1: not shown
heavy 2: not shown
light: DIVMTQSPLSLPVTPGEPASISCQASESLVHSNRNTYLHWYLQKPGQSPQLLIYKVSNRFSGVPDRFSGSGSGTDFTLKISRVEAEDVGVYYCSQNTHVPPTFGQGTKVEIERTVAAPSVFIFPPSDEQLKSGTASVVCLLNNFYPREAKVQWKVDNALQSGNSQESVTEQDSKDSTYSLSSTLTLSKADYEKHKVYACEVTHQGLSSPVTKSFNRGEC
notes: as for B1
B5: GpH7-A5/GpH7-B3 variant L328_15Y/GpL16-k0 (antibody, human IgG1, kappa)
heavy 1: not shown
heavy 2: not shown
light: DIVMTQSPLSLPVTPGEPASISCQASESLVHSNRNTYLHWYLQKPGQSPQLLIYKVSNRFSGVPDRFSGSGSGTDFTLKISRVEAEDVGVYYCSQNTHVPPTFGQGTKVEIERTVAAPSVFIFPPSDEQLKSGTASVVCLLNNFYPREAKVQWKVDNALQSGNSQESVTEQDSKDSTYSLSSTLTLSKADYEKHKVYACEVTHQGLSSPVTKSFNRGEC
notes: as for B1
B6: GpH7-A5/GpH7-B3 variant P238_08L/GpL16-k0 (antibody, human IgG1, kappa)
heavy 1: not shown
heavy 2: not shown
light: DIVMTQSPLSLPVTPGEPASISCQASESLVHSNRNTYLHWYLQKPGQSPQLLIYKVSNRFSGVPDRFSGSGSGTDFTLKISRVEAEDVGVYYCSQNTHVPPTFGQGTKVEIERTVAAPSVFIFPPSDEQLKSGTASVVCLLNNFYPREAKVQWKVDNALQSGNSQESVTEQDSKDSTYSLSSTLTLSKADYEKHKVYACEVTHQGLSSPVTKSFNRGEC
notes: as for B1
B7: GpH7-A5/GpH7-B3 variant S239_01G/GpL16-k0 (antibody, human IgG1, kappa)
heavy 1: not shown
heavy 2: not shown
light: DIVMTQSPLSLPVTPGEPASISCQASESLVHSNRNTYLHWYLQKPGQSPQLLIYKVSNRFSGVPDRFSGSGSGTDFTLKISRVEAEDVGVYYCSQNTHVPPTFGQGTKVEIERTVAAPSVFIFPPSDEQLKSGTASVVCLLNNFYPREAKVQWKVDNALQSGNSQESVTEQDSKDSTYSLSSTLTLSKADYEKHKVYACEVTHQGLSSPVTKSFNRGEC
notes: as for B1
B8: GpH7-A5/GpH7-B3 variant S239_09D/GpL16-k0 (antibody, human IgG1, kappa)
heavy 1: not shown
heavy 2: not shown
light: DIVMTQSPLSLPVTPGEPASISCQASESLVHSNRNTYLHWYLQKPGQSPQLLIYKVSNRFSGVPDRFSGSGSGTDFTLKISRVEAEDVGVYYCSQNTHVPPTFGQGTKVEIERTVAAPSVFIFPPSDEQLKSGTASVVCLLNNFYPREAKVQWKVDNALQSGNSQESVTEQDSKDSTYSLSSTLTLSKADYEKHKVYACEVTHQGLSSPVTKSFNRGEC
notes: as for B1
B9: GpH7-A5/GpH7-B3 variant S267_01G/GpL16-k0 (antibody, human IgG1, kappa)
heavy 1: not shown
heavy 2: not shown
light: DIVMTQSPLSLPVTPGEPASISCQASESLVHSNRNTYLHWYLQKPGQSPQLLIYKVSNRFSGVPDRFSGSGSGTDFTLKISRVEAEDVGVYYCSQNTHVPPTFGQGTKVEIERTVAAPSVFIFPPSDEQLKSGTASVVCLLNNFYPREAKVQWKVDNALQSGNSQESVTEQDSKDSTYSLSSTLTLSKADYEKHKVYACEVTHQGLSSPVTKSFNRGEC
notes: as for B1
B10: GpH7-A5/GpH7-B3 variant S267_02A/GpL16-k0 (antibody, human IgG1, kappa)
heavy 1: not shown
heavy 2: not shown
light: DIVMTQSPLSLPVTPGEPASISCQASESLVHSNRNTYLHWYLQKPGQSPQLLIYKVSNRFSGVPDRFSGSGSGTDFTLKISRVEAEDVGVYYCSQNTHVPPTFGQGTKVEIERTVAAPSVFIFPPSDEQLKSGTASVVCLLNNFYPREAKVQWKVDNALQSGNSQESVTEQDSKDSTYSLSSTLTLSKADYEKHKVYACEVTHQGLSSPVTKSFNRGEC
notes: as for B1

molecular target: T1, FcγRIIa R; test: SPR (Biacore), antibody captured via antigen peptide, FcγRIIa R as analyte; heterodimerized antibody
Experimental: Analysis of interaction between objective antibody and the FcγR was carried out using Biacore T100 (GE Healthcare). HBS-EP+ (GE Healthcare) was used as the running buffer, and the measurement temperature was set to 25° C. Chips produced by immobilizing the antigen peptide by the amine coupling method to a Series S Sencor Chip CM5 (GE Healthcare), or alternatively, chips produced by allowing preliminarily biotinylated antigen peptides to interact with and immobilize onto a Series S Sensor Chip SA (certified) (GE Healthcare) were used. Antibodies of interest were captured onto an antigen peptide-immobilized chip, and allowed to interact to each FcγR diluted with running buffer. To regenerate and repeatedly use the chip, the antibodies captured on the chip were washed off by reacting 10 mM glycine-HCl, pH 1.5.

| He/Con_2aR | Binder |
| --- | --- |
| 116 % of control (GpH7-A5/GpH7-B3/GpL16-k0 = 100) | B1 |
| 138 % of control (GpH7-A5/GpH7-B3/GpL16-k0 = 100) | B2 |
| 115 % of control (GpH7-A5/GpH7-B3/GpL16-k0 = 100) | B3 |
| 124 % of control (GpH7-A5/GpH7-B3/GpL16-k0 = 100) | B4 |
| 136 % of control (GpH7-A5/GpH7-B3/GpL16-k0 = 100) | B5 |
| 140 % of control (GpH7-A5/GpH7-B3/GpL16-k0 = 100) | B6 |
| 128 % of control (GpH7-A5/GpH7-B3/GpL16-k0 = 100) | B7 |
| 137 % of control (GpH7-A5/GpH7-B3/GpL16-k0 = 100) | B8 |
| 113 % of control (GpH7-A5/GpH7-B3/GpL16-k0 = 100) | B9 |
| 155 % of control (GpH7-A5/GpH7-B3/GpL16-k0 = 100) | B10 |
